Laboratory results published in paper PMC9464147.
Values joined by “and” are separate entries in the source; they are usually repeats but may differ in a detail not shown here. Identical values can stand only once. Blank lines part the entries; values can stand above or below the substance they belong to.

Legend:
[1] = molecular target: Milk CA VI (carbonic anhydrase VI purified from human milk) (human) (UniProt P23280); experiment: SDS-PAGE without cross-linker; milk CA VI without DSS treatment (lane 7), boiled in sample buffer with SDS and reducing agent, SDS-PAGE, densitometry of bands
[2] = molecular target: Milk CA VI (carbonic anhydrase VI purified from human milk) (human) (UniProt P23280); experiment: SEC; analytical SEC, Superdex 200 5/150 GL, 50 µg protein, 50 mM Tris-HCl pH 7.5, 0.1 ml/min, +12 °C; MW from a standard curve, oligomeric state calculated with a monomer MW of 33.57 kDa
[3] = molecular target: Milk CA VI (carbonic anhydrase VI purified from human milk) (human) (UniProt P23280); experiment: cross-linking; DSS in 25- and 50-fold molar excess over protein (Table 3: 50-fold), milk CA VI 0.25-2 mg/ml in 100 mM Na2HPO4, 0.15 M NaCl pH 7.5, RT 30 min, quenched with Tris-HCl; reducing SDS-PAGE, densitometry of bands
[4] = molecular target: Milk CA VI (carbonic anhydrase VI purified from human milk) (human) (UniProt P23280); experiment: SEC; analytical SEC, Superdex 200 5/150 GL, 50 µg protein, 0.1 M Na-acetate buffer pH 5.0, 0.1 ml/min, +12 °C; MW from a standard curve, oligomeric state calculated with a monomer MW of 33.57 kDa
[5] = molecular target: Salivary CA VI (carbonic anhydrase VI purified from human saliva) (human) (UniProt P23280); experiment: SEC; analytical SEC, Superdex 200 5/150 GL, 50 µg protein, 50 mM Tris-HCl pH 7.5, 0.1 ml/min, +12 °C; MW from a standard curve, oligomeric state calculated with a monomer MW of 33.57 kDa
[6] = molecular target: Salivary CA VI (carbonic anhydrase VI purified from human saliva) (human) (UniProt P23280); experiment: SEC; analytical SEC, Superdex 200 5/150 GL, 50 µg protein, 0.1 M Na-acetate buffer pH 5.0, 0.1 ml/min, +12 °C; MW from a standard curve, oligomeric state calculated with a monomer MW of 33.57 kDa

% of the lane in the dimer band (no DSS) [1]: 9.67% | stoichiometry N [2]: 15 and 6 | % of the lane in the dimer band (0.25 mg/ml) [3]: 16.1% | % of the lane in the dimer band (0.5 mg/ml) [3]: 9.88% | % of the lane in the dimer band (0.75 mg/ml) [3]: 19.4% | % of the lane in the dimer band (1 mg/ml) [3]: 17% | % of the lane in the dimer band (1.5 mg/ml) [3]: 16.9% | % of the lane in the dimer band (2 mg/ml) [3]: 19% | % of the lane in the hexamer band (0.25 mg/ml) [3]: 22.3% | % of the lane in the hexamer band (0.5 mg/ml) [3]: 12.8% | % of the lane in the hexamer band (0.75 mg/ml) [3]: 20.3% | % of the lane in the hexamer band (1 mg/ml) [3]: 23.5% | % of the lane in the hexamer band (1.5 mg/ml) [3]: 20.4% | % of the lane in the hexamer band (2 mg/ml) [3]: 20.8% | % of the lane in the tetra- or pentamer band (0.25 mg/ml) [3]: 14.1% | % of the lane in the tetra- or pentamer band (0.5 mg/ml) [3]: 10.2% | % of the lane in the tetra- or pentamer band (0.75 mg/ml) [3]: 15.2% | % of the lane in the tetra- or pentamer band (1 mg/ml) [3]: 13.2% | % of the lane in the tetra- or pentamer band (1.5 mg/ml) [3]: 12.7% | % of the lane in the tetra- or pentamer band (2 mg/ml) [3]: 12.1% | stoichiometry N [3]: 5 | stoichiometry N ([3]; dimer band): 2 | stoichiometry N ([3]; hexamer band): 6 | stoichiometry N [4]: 7
Substance: Milk CA VI (carbonic anhydrase VI purified from human milk) (from UniProt P23280 18-308) (enzyme)

stoichiometry N [5]: 14 | stoichiometry N [6]: 6
Substance: Salivary CA VI (carbonic anhydrase VI purified from human saliva) (from UniProt P23280 18-308) (enzyme)
